This note sets out measurements from patent US20220211857A1, “POLYPEPTIDE DERIVATIVE AND PREPARATION METHOD THEREOF” (NINGBO KUNPENG BIOTECH CO., LTD., priority 2019, published 2022).

Where a SMILES comes first, the peptide text is derived from it. The star is where a group is joined. X6 = O=C(O)CCCCCCCCCCCCCCC(=O)NC(CCC(=O)NCCOCCOCC(=O)NCCOCCOCCn1cc(CCOC(=O)*)nn1)C(=O)O; X3 = O=C(O)CCCCCCCCCCCCCCC(=O)NC(CCC(=O)NCCOCCOCCOCCOCCn1cc(CCOC(=O)*)nn1)C(=O)O; X5 = O=C(O)CCCCCCCCCCCCCCC(=O)NC(CCC(=O)NCCOCCOCCOCCn1cc(CCOC(=O)*)nn1)C(=O)O; X4 = O=C(O)CCCCCCCCCCCCCCC(=O)NC(CCC(=O)NCCOCCOCCn1cc(CCOC(=O)*)nn1)C(=O)O; X2 = O=C(O)CCCCCCCCCCCCCCC(=O)NC(CCC(=O)NCCn1cc(CCOC(=O)*)nn1)C(=O)O

Series [1] in a line: Pharmacokinetics studies of PTH-1 derivatives in rats (single subcutaneous injection, LC-MS/MS, NCA). Particulars: rat, experiment of Example 10 repeated in the same way. Type of series: in vivo. The protocol: PTH-1 and L6-GFA16-PTH-1 were injected subcutaneously with a single administration of 8.6 μg/kg, respectively. Animals in each group were collected blood at 0 min, 5 min, 15 min, 30 min, 1 h, 2 h, and 4 h after administration. […] Exposure time of drugs in vivo was prolonged and exposure doses were increased.

Series [2] in a line: Pharmacokinetics studies of GLP-1 derivatives in rats (single subcutaneous injection, LC-MS/MS, NCA). Particulars: rat.
Protocol: The experiment comprised a reference substance group and a test substance group. GLP-1 and L6-GFA16-GLP-1 were injected subcutaneously with a single administration of 0.5 mg/kg, respectively. Animals in each group were collected blood at 15 min, 30 min, 1 h, 2 h, 3 h, 5 h, 7 h, 12 h, and 24 h after administration. LC-MS/MS analysis method was used to detect contents of different GLP-1 analogues.

As for `CC[C@H](C)[C@H](NC(=O)[C@H](CCC(=O)O)NC(=O)[C@H](CO)NC(=O)[C@@H](NC(=O)[C@@H](N)CO)C(C)C)C(=O)N[C@@H](CCC(N)=O)C(=O)N[C@@H](CC(C)C)C(=O)N[C@@H](CCSC)C(=O)N[C@@H](Cc1c[nH]cn1)C(=O)N[C@@H](CC(N)=O)C(=O)N[C@@H](CC(C)C)C(=O)NCC(=O)N[C@@H](CCCNC(=N)N)C(=O)N[C@@H](Cc1c[nH]cn1)C(=O)N[C@@H](CC(C)C)C(=O)N[C@@H](CC(N)=O)C(=O)N[C@@H](CO)C(=O)N[C@@H](CCSC)C(=O)N[C@@H](CCC(=O)O)C(=O)N[C@@H](CCCNC(=N)N)C(=O)N[C@H](C(=O)N[C@@H](CCC(=O)O)C(=O)N[C@@H](Cc1c[nH]c2ccccc12)C(=O)N[C@@H](CC(C)C)C(=O)N[C@@H](CCCNC(=N)N)C(=O)N[C@@H](CCCCNC(=O)OCCc1cn(CCNC(=O)CCC(NC(=O)CCCCCCCCCCCCCCC(=O)O)C(=O)O)nn1)C(=O)N[C@@H](CCCNC(=N)N)C(=O)N[C@@H](CC(C)C)C(=O)N[C@@H](CCC(N)=O)C(=O)N[C@@H](CC(=O)O)C(=O)N[C@H](C(=O)N[C@@H](Cc1c[nH]cn1)C(=O)N[C@@H](CC(N)=O)C(=O)N[C@@H](Cc1ccccc1)C(=O)O)C(C)C)C(C)C` (some centres unmarked) [L0-GFA16-PTH] (H-SVSEIQLMHNLGRHLNSMERVEWLRK(X2)RLQDVHNF-OH), the “half-lives (in words)” value in series [1] is “significantly prolonged”.
On the same count and under the same terms, in the case of `CC[C@H](C)[C@H](NC(=O)[C@H](CCC(=O)O)NC(=O)[C@H](CO)NC(=O)[C@@H](NC(=O)[C@@H](N)CO)C(C)C)C(=O)N[C@@H](CCC(N)=O)C(=O)N[C@@H](CC(C)C)C(=O)N[C@@H](CCSC)C(=O)N[C@@H](Cc1c[nH]cn1)C(=O)N[C@@H](CC(N)=O)C(=O)N[C@@H](CC(C)C)C(=O)NCC(=O)N[C@@H](CCCNC(=N)N)C(=O)N[C@@H](Cc1c[nH]cn1)C(=O)N[C@@H](CC(C)C)C(=O)N[C@@H](CC(N)=O)C(=O)N[C@@H](CO)C(=O)N[C@@H](CCSC)C(=O)N[C@@H](CCC(=O)O)C(=O)N[C@@H](CCCNC(=N)N)C(=O)N[C@H](C(=O)N[C@@H](CCC(=O)O)C(=O)N[C@@H](Cc1c[nH]c2ccccc12)C(=O)N[C@@H](CC(C)C)C(=O)N[C@@H](CCCNC(=N)N)C(=O)N[C@@H](CCCCNC(=O)OCCc1cn(CCOCCOCCNC(=O)CCC(NC(=O)CCCCCCCCCCCCCCC(=O)O)C(=O)O)nn1)C(=O)N[C@@H](CCCNC(=N)N)C(=O)N[C@@H](CC(C)C)C(=O)N[C@@H](CCC(N)=O)C(=O)N[C@@H](CC(=O)O)C(=O)N[C@H](C(=O)N[C@@H](Cc1c[nH]cn1)C(=O)N[C@@H](CC(N)=O)C(=O)N[C@@H](Cc1ccccc1)C(=O)O)C(C)C)C(C)C` (some centres unmarked) [L2-GFA16-PTH] (H-SVSEIQLMHNLGRHLNSMERVEWLRK(X4)RLQDVHNF-OH) it was “significantly prolonged”.
On the same count and under the same terms, in the case of `CC[C@H](C)[C@H](NC(=O)[C@H](CCC(=O)O)NC(=O)[C@H](CO)NC(=O)[C@@H](NC(=O)[C@@H](N)CO)C(C)C)C(=O)N[C@@H](CCC(N)=O)C(=O)N[C@@H](CC(C)C)C(=O)N[C@@H](CCSC)C(=O)N[C@@H](Cc1c[nH]cn1)C(=O)N[C@@H](CC(N)=O)C(=O)N[C@@H](CC(C)C)C(=O)NCC(=O)N[C@@H](CCCNC(=N)N)C(=O)N[C@@H](Cc1c[nH]cn1)C(=O)N[C@@H](CC(C)C)C(=O)N[C@@H](CC(N)=O)C(=O)N[C@@H](CO)C(=O)N[C@@H](CCSC)C(=O)N[C@@H](CCC(=O)O)C(=O)N[C@@H](CCCNC(=N)N)C(=O)N[C@H](C(=O)N[C@@H](CCC(=O)O)C(=O)N[C@@H](Cc1c[nH]c2ccccc12)C(=O)N[C@@H](CC(C)C)C(=O)N[C@@H](CCCNC(=N)N)C(=O)N[C@@H](CCCCNC(=O)OCCc1cn(CCOCCOCCOCCNC(=O)CCC(NC(=O)CCCCCCCCCCCCCCC(=O)O)C(=O)O)nn1)C(=O)N[C@@H](CCCNC(=N)N)C(=O)N[C@@H](CC(C)C)C(=O)N[C@@H](CCC(N)=O)C(=O)N[C@@H](CC(=O)O)C(=O)N[C@H](C(=O)N[C@@H](Cc1c[nH]cn1)C(=O)N[C@@H](CC(N)=O)C(=O)N[C@@H](Cc1ccccc1)C(=O)O)C(C)C)C(C)C` (some centres unmarked) [L3-GFA16-PTH] (H-SVSEIQLMHNLGRHLNSMERVEWLRK(X5)RLQDVHNF-OH) it was “significantly prolonged”.
Turning to `CC[C@H](C)[C@H](NC(=O)[C@H](Cc1ccccc1)NC(=O)[C@H](CCC(=O)O)NC(=O)[C@H](CCCCNC(=O)OCCc1cn(CCOCCOCCOCCOCCNC(=O)CCC(NC(=O)CCCCCCCCCCCCCCC(=O)O)C(=O)O)nn1)NC(=O)[C@H](C)NC(=O)[C@H](C)NC(=O)[C@H](CCC(N)=O)NC(=O)CNC(=O)[C@H](CCC(=O)O)NC(=O)[C@H](CC(C)C)NC(=O)[C@H](Cc1ccc(O)cc1)NC(=O)[C@H](CO)NC(=O)[C@H](CO)NC(=O)[C@@H](NC(=O)[C@H](CC(=O)O)NC(=O)[C@H](CO)NC(=O)[C@@H](NC(=O)[C@H](Cc1ccccc1)NC(=O)[C@@H](NC(=O)CNC(=O)[C@H](CCC(=O)O)NC(=O)[C@H](C)NC(=O)[C@@H](N)Cc1c[nH]cn1)[C@@H](C)O)[C@@H](C)O)C(C)C)C(=O)N[C@@H](C)C(=O)N[C@@H](Cc1c[nH]c2ccccc12)C(=O)N[C@@H](CC(C)C)C(=O)N[C@H](C(=O)N[C@@H](CCCCN)C(=O)NCC(=O)N[C@@H](CCCNC(=N)N)C(=O)NCC(=O)O)C(C)C` (some centres unmarked) [L4-GFA16-GLP-1], in series [2] (experiment of Example 8 repeated in the same way), the “half-lives (in words)” value is listed as “significantly prolonged”.
For the compound `CC[C@H](C)[C@H](NC(=O)[C@H](CCC(=O)O)NC(=O)[C@H](CO)NC(=O)[C@@H](NC(=O)[C@@H](N)CO)C(C)C)C(=O)N[C@@H](CCC(N)=O)C(=O)N[C@@H](CC(C)C)C(=O)N[C@@H](CCSC)C(=O)N[C@@H](Cc1c[nH]cn1)C(=O)N[C@@H](CC(N)=O)C(=O)N[C@@H](CC(C)C)C(=O)NCC(=O)N[C@@H](CCCNC(=N)N)C(=O)N[C@@H](Cc1c[nH]cn1)C(=O)N[C@@H](CC(C)C)C(=O)N[C@@H](CC(N)=O)C(=O)N[C@@H](CO)C(=O)N[C@@H](CCSC)C(=O)N[C@@H](CCC(=O)O)C(=O)N[C@@H](CCCNC(=N)N)C(=O)N[C@H](C(=O)N[C@@H](CCC(=O)O)C(=O)N[C@@H](Cc1c[nH]c2ccccc12)C(=O)N[C@@H](CC(C)C)C(=O)N[C@@H](CCCNC(=N)N)C(=O)N[C@@H](CCCCNC(=O)OCCc1cn(CCOCCOCCOCCOCCNC(=O)CCC(NC(=O)CCCCCCCCCCCCCCC(=O)O)C(=O)O)nn1)C(=O)N[C@@H](CCCNC(=N)N)C(=O)N[C@@H](CC(C)C)C(=O)N[C@@H](CCC(N)=O)C(=O)N[C@@H](CC(=O)O)C(=O)N[C@H](C(=O)N[C@@H](Cc1c[nH]cn1)C(=O)N[C@@H](CC(N)=O)C(=O)N[C@@H](Cc1ccccc1)C(=O)O)C(C)C)C(C)C` (some centres unmarked) [L4-GFA16-PTH] (H-SVSEIQLMHNLGRHLNSMERVEWLRK(X3)RLQDVHNF-OH), in series [1], the “half-lives (in words)” value is listed as “significantly prolonged”.
For the compound `CC[C@H](C)[C@H](NC(=O)[C@H](CCC(=O)O)NC(=O)[C@H](CO)NC(=O)[C@@H](NC(=O)[C@@H](N)CO)C(C)C)C(=O)N[C@@H](CCC(N)=O)C(=O)N[C@@H](CC(C)C)C(=O)N[C@@H](CCSC)C(=O)N[C@@H](Cc1c[nH]cn1)C(=O)N[C@@H](CC(N)=O)C(=O)N[C@@H](CC(C)C)C(=O)NCC(=O)N[C@@H](CCCNC(=N)N)C(=O)N[C@@H](Cc1c[nH]cn1)C(=O)N[C@@H](CC(C)C)C(=O)N[C@@H](CC(N)=O)C(=O)N[C@@H](CO)C(=O)N[C@@H](CCSC)C(=O)N[C@@H](CCC(=O)O)C(=O)N[C@@H](CCCNC(=N)N)C(=O)N[C@H](C(=O)N[C@@H](CCC(=O)O)C(=O)N[C@@H](Cc1c[nH]c2ccccc12)C(=O)N[C@@H](CC(C)C)C(=O)N[C@@H](CCCNC(=N)N)C(=O)N[C@@H](CCCCNC(=O)OCCc1cn(CCOCCOCCNC(=O)COCCOCCNC(=O)CCC(NC(=O)CCCCCCCCCCCCCCC(=O)O)C(=O)O)nn1)C(=O)N[C@@H](CCCNC(=N)N)C(=O)N[C@@H](CC(C)C)C(=O)N[C@@H](CCC(N)=O)C(=O)N[C@@H](CC(=O)O)C(=O)N[C@H](C(=O)N[C@@H](Cc1c[nH]cn1)C(=O)N[C@@H](CC(N)=O)C(=O)N[C@@H](Cc1ccccc1)C(=O)O)C(C)C)C(C)C` (some centres unmarked) [L5-GFA16-PTH] (H-SVSEIQLMHNLGRHLNSMERVEWLRK(X6)RLQDVHNF-OH), in series [1], the “half-lives (in words)” value is given as “significantly prolonged”.
Take `CC[C@H](C)[C@H](NC(=O)[C@H](Cc1ccccc1)NC(=O)[C@H](CCC(=O)O)NC(=O)[C@H](CCCCNC(=O)OCCc1cn(CCNC(=O)COCCOCCNC(=O)COCCOCCNC(=O)CCC(NC(=O)CCCCCCCCCCCCCCC(=O)O)C(=O)O)nn1)NC(=O)[C@H](C)NC(=O)[C@H](C)NC(=O)[C@H](CCC(N)=O)NC(=O)CNC(=O)[C@H](CCC(=O)O)NC(=O)[C@H](CC(C)C)NC(=O)[C@H](Cc1ccc(O)cc1)NC(=O)[C@H](CO)NC(=O)[C@H](CO)NC(=O)[C@@H](NC(=O)[C@H](CC(=O)O)NC(=O)[C@H](CO)NC(=O)[C@@H](NC(=O)[C@H](Cc1ccccc1)NC(=O)[C@@H](NC(=O)CNC(=O)[C@H](CCC(=O)O)NC(=O)[C@H](C)NC(=O)[C@@H](N)Cc1c[nH]cn1)[C@@H](C)O)[C@@H](C)O)C(C)C)C(=O)N[C@@H](C)C(=O)N[C@@H](Cc1c[nH]c2ccccc12)C(=O)N[C@@H](CC(C)C)C(=O)N[C@H](C(=O)N[C@@H](CCCCN)C(=O)NCC(=O)N[C@@H](CCCNC(=N)N)C(=O)NCC(=O)O)C(C)C` (some centres unmarked) [L6-GFA16-GLP-1]: in series [2] (s.c. 0.5 mg/kg, versus GLP-1), the “Exposure time in vivo” value was “prolonged” and the exposure doses entry was “increased significantly”.
